# Test results reported in patent US20240392004A1 (IMMUNOWAKE, published 2024).
# Changes are numbered by the printed parent chain. In names and notes the source's numbering stands.
# B1: IL-12(E59A/F60A)/anti-PD-1(D100N) (antibody)
# light: not shown
# heavy: QVQLVESGGGVVQPGRSLRLDCKASGITFSNSGMHWVRQAPGKGLEWVAVIWYDGSKRYYADSVKGRFTISRDNSKNTLFLQMNSLRAEDTAVYYCATNNDYWGQGTLVTVSSASTKGPSVFPLAPSSKSTSGGTAALGCLVKDYFPEPVTVSWNSGALTSGVHTFPAVLQSSGLYSLSSVVTVPSSSLGTQTYICNVNHKPSNTKVDKKVEPKSCDKPGSGIWELKKDVYVVELDWYPDAPGEMVVLTCDTPEEDGITWTLDQSSEVLGSGKTLTIQVKAAGDAGQYTCHKGGEVLSHSLLLLHKKEDGIWSTDILKDQKEPKNKTFLRCEAKNYSGRFTCWWLTTISTDLTFSVKSSRGSSDPQGVTCGAATLSAERVRGDNKEYEYSVECQEDSACPAAEESLPIEVMVDAVHKLKYENYTSSFFIRDIIKPDPPKNLQLKPLKNSRQVEVSWEYPDTWSTPHSYFSLTFCVQVQGKSKREKKDRVFTDKTSATVICRKNASISVRAQDRYYSSSWSEWASVPCSGGGGSGGGGSGGGGSGGGGSGRNLPVATPDPGMFPCLHHSQNLLRAVSNMLQKARQTLEFYPCTSEEIDHEDITKDKTSTVEACLPLELTKNESCLNSRETSFITNGSCLASRKTSFMMALCLSSIYEDLKMYQVEFKTMNAKLLMDPKRQIFLDQNMLAVIDELMQALNFNSETVPQKSSLEEPDFYKTKIKLCILLHAFRIRAVTIDRVMSYLNASDKTHTCPPCPAPEDEGGPSVFLFPPKPKDTLMISRTPEVTCVVVDVSHEDPEVKFNWYVDGVEVHNAKTKPREEQYNSTYRVVSVLTVLHQDWLNGKEYKCKVSNKALPAPIEKTISKAKGQPREPQVYVYPPSREEMTKNQVSLTCLVKGFYPSDIAVEWESNGQPENNYKTTPPVLDEDGSFALVSKLTVDKSRWQQGNVFSCSVMHEALHNHYTQKSLSLSPGK
# heavy (part 1 of 2): QVQLVESGGGVVQPGRSLRLDCKASGITFSNSGMHWVRQAPGKGLEWVAVIWYDGSKRYYADSVKGRFTISRDNSKNTLFLQMNSLRAEDTAVYYCATNNDYWGQGTLVTVSSAS
# heavy (part 2 of 2): EPKSCDKTHTCPPCPAPEKKGGPSVFLFPPKPKDTLMISRTPEVTCVVVDVSHEDPEVKFNWYVDGVEVHNAKTKPREEQYNSTYRVVSVLTVLHQDWLNGKEYKCKVSNKALPAPIEKTISKAKGQPREPQVYVLPPSREEMTKNQVSLLCLVKGFYPSDIAVEWESNGQPENRYMTWPPVLDSDGSFFLYSKLTVDKSRWQQGNVFSCSVMHEALHNHYTQKSLSLSPGK
# B2: IL-12(E59A/F60A)/anti-PD-1(N99G) (antibody)
# light: not shown
# heavy: not shown
# heavy (part 1 of 2): B1 heavy (part 1 of 2) with N99G, N100D
# heavy (part 2 of 2): B1 heavy (part 2 of 2)
# B3: IL-12(E59A/F60A)/anti-PD-1(D100R) (antibody)
# light: not shown
# heavy: B1 heavy with N100R
# heavy (part 1 of 2): B1 heavy (part 1 of 2) with N100R
# heavy (part 2 of 2): B1 heavy (part 2 of 2)
# B4: IL-12(E59A/F60A)/anti-PD-1(D100G) (antibody)
# light: not shown
# heavy: B1 heavy with N100G
# heavy (part 1 of 2): B1 heavy (part 1 of 2) with N100G
# heavy (part 2 of 2): B1 heavy (part 2 of 2)
# B5: anti-PD-1 antibody HC-CDR3(N99G) (antibody, V domains shown)
# VH: QVQLVESGGGVVQPGRSLRLDCKASGITFSNSGMHWVRQAPGKGLEWVAVIWYDGSKRYYADSVKGRFTISRDNSKNTLFLQMNSLRAEDTAVYYCATGDDYWGQGTLVTVSS
# VL: EIVLTQSPATLSLSPGERATLSCRASQSVSSYLAWYQQKPGQAPRLLIYDASNRATGIPARFSGSGSGTDFTLTISSLEPEDFAVYYCQQSSNWPRTFGQGTKVEIKR
# notes: constant parts as m82
# Molecular target: human PD-1 on cells (HEK-PD-1 reporter cells; activated PBMC) (human, UniProt Q15116 25-288)
# Sequence (Q15116 25-288): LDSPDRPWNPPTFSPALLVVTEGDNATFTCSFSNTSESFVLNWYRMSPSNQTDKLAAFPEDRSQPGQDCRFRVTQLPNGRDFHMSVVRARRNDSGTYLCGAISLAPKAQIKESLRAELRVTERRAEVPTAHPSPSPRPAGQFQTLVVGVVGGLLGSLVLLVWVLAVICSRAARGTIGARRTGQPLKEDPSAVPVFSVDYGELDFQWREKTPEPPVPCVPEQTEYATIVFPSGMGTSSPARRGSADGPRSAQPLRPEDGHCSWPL
# Experiment: cell-based or functional assay
"IFN-γ release, activated PBMC [ng/mL]","IL-12 signal transduction, HEK-IL-12-PD-1 (high) [%]","IL-12 signal transduction, HEK-IL-12-PD-1 (low) [%]",Binder
820,38,33,B1
34,5,< 0.2,B2
69,10,3,B3
120,33,17,B4

# Molecular target: human IL-12 receptor complex (IL-12Rβ1 and IL-12Rβ2) (human, UniProt P42701 24-662; Q99665 24-862)
# Sequence (Q99665 24-862, chain 2 of 2, other chains not shown): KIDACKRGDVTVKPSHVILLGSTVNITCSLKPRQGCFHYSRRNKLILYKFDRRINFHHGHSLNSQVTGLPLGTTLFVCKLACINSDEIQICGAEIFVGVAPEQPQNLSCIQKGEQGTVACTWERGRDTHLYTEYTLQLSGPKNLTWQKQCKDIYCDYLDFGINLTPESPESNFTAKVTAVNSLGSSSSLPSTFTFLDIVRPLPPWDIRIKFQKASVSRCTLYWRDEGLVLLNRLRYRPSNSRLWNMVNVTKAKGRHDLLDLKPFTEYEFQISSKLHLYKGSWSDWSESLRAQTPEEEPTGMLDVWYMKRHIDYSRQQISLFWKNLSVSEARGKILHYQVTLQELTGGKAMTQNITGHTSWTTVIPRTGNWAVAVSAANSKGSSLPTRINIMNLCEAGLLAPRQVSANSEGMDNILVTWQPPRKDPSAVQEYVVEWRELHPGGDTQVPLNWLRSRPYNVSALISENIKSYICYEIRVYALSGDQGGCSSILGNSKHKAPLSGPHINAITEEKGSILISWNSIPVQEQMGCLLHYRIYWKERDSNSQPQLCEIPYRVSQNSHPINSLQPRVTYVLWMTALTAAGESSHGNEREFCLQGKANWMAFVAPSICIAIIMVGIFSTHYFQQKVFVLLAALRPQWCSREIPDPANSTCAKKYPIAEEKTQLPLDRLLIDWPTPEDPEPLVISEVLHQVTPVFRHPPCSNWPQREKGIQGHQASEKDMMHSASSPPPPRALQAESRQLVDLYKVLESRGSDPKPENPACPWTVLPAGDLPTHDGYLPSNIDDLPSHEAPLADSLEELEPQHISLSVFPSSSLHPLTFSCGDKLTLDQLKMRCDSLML
# Experiment: cell-based or functional assay
row,"IL-12 signal transduction, HEK IL-12 [%]",Binder
1,< 0.2,B1
2,< 0.2,B2
3,< 0.2,B3
4,< 0.2,B4

# Molecular target: T1, human PD-1 (human, UniProt Q15116 25-167, limits assumed)
# T1 construct: also called hPD-1
# T1 sequence (Q15116 25-167 limits assumed): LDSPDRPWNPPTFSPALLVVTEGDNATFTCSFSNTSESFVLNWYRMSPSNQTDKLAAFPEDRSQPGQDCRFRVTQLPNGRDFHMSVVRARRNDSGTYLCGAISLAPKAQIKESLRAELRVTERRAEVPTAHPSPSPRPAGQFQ
# Experiment: Biacore and cell-based assays, calibrated by wildtype nivolumab binding affinity
row,Kd [nM],Binder
1,2300,B5

# Molecular target: T1, human PD-1
# Experiment: same value as Table 11 (measured on the antibody without IL-12)
row,Kd [nM],Binder
1,25,B1
2,2300,B2
3,910,B3
4,130,B4
